Measured values from patent publication US20210032365A1 (Chugai, published 2021).
Where a chain is given by its changes, count along the chain named. Names may count otherwise. Each block holds one binder with its values, some of them ahead of it.

How the values were obtained:
[1] = molecular target: T1, Serum-derived human C1s (human, UniProt P09871 16-688); assay: SPR Biacore T200, 37 C, antibody captured on protein A/G, pH 7.4, 1.2 mM CaCl2
T1 construct: The analyte was C1s purified from serum; also called hC1s
T1 sequence: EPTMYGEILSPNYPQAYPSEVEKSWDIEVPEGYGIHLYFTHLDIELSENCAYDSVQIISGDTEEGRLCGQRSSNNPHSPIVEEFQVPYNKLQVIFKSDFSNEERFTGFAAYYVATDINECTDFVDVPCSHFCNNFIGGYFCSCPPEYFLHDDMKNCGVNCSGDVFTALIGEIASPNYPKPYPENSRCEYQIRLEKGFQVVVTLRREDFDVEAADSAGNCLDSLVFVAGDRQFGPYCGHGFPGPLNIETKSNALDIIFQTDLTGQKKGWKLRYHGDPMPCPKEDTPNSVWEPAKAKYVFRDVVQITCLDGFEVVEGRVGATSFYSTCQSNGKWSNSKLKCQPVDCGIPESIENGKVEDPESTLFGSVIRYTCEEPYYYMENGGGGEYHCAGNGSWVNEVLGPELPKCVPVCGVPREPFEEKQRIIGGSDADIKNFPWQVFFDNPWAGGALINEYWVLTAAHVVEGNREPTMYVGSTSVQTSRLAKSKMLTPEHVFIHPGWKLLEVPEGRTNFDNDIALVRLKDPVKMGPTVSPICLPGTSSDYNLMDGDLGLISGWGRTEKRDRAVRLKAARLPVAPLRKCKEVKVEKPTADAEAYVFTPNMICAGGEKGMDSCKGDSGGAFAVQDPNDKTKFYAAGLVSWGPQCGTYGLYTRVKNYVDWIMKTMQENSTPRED
Procedure: (§1) The binding affinity of all histidine-substituted variants at pH 7.4 and pH 5.8 were determined at 37 degrees C. using Biacore T200 instrument (GE Healthcare). Recombinant Protein A/G (Pierce) was immobilized onto all flow cells of a CM4 sensor chip using amine coupling kit (GE Healthcare). Antibodies and analytes were prepared in 7(+) buffer (20 mM ACES, 150 mM NaCl, 1.2 mM CaCl2, 0.05% Tween 20, 0.005% NaN3, pH 7.4) or 5(+) buffer (20 mM ACES, 150 mM NaCl, 1.2 mM CaCl2), 0.05% Tween 20, 0.005% NaN3, pH 5.8). Each antibody was captured onto the sensor surface by protein A/G. Antibody capture levels were aimed at 200 resonance unit (RU). […] Sensor surface was regenerated each cycle with 10 mM Glycine-HCl pH 1.5. […] An additional dissociation phase at pH 5.8 was integrated immediately after the dissociation phase at pH 7.4. This dissociation rate in 5(+) buffer was determined by processing and fitting data using Scrubber 2.0 (BioLogic Software) curve fitting software.

[2] = molecular target: T1, Serum-derived human C1s; assay: SPR Biacore T200, 37 C, ratio of KD pH 5.8 / pH 7.4, 1.2 mM CaCl2
Procedure: as §1, with “software. […]” for “software.”

[3] = molecular target: T1, Serum-derived human C1s; assay: SPR Biacore T200, 37 C, antibody captured on protein A/G, pH 5.8, 1.2 mM CaCl2
Procedure: as §1

[4] = molecular target: T1, Serum-derived human C1s; assay: SPR Biacore T200, 37 C, ratio of dissociation rates pH 5.8 / pH 7.4, 1.2 mM CaCl2
Procedure: as §1

[5] = molecular target: T2, human C1s (human, UniProt P09871 16-688); assay: SPR; koff (5.8+ of 775+): extra dissociation phase at pH 5.8 (1.2 mM Ca) right after the pH 7.4 dissociation, Scrubber fit
T2 construct: Analyte in the Biacore assays; also called hC1s; serum-derived human C1s (CompTech)
T2 sequence: T1 sequence
Procedure: as §1

[6] = molecular target: T2, human C1s; assay: SPR; KD at pH 5.8 over KD at pH 7.4, both 1.2 mM Ca
Procedure: as §1, with “software. […]” for “software.”

[7] = molecular target: T2, human C1s; assay: SPR (Biacore T200, 37C), Ab captured on protein A/G, serum C1s 12.5 and 50 nM; pH 7.4, 1.2 mM Ca
Procedure: as §1

kon [1]: 344000 M⁻¹ s⁻¹
KD (5.8+)/KD (7.4+) [2]: 0.4
koff [3]: 0.000162 s⁻¹
kon [3]: 360000 M⁻¹ s⁻¹
koff (5.8+ of 775+)/koff (7.4+) [4]: 0.2
B1: IPN009VH2/IPN009VK3-SG136 (antibody, human IgG1, kappa)
heavy: EVMLVESGGGLVKPGGSLRLSCAASGFTFSNYAMSWVRQAPGKGLEWVATISSGGSHTYYLDSVKGRFTISRDNSKDTLYLQMNSLRAEDTALYYCARLFTGYAMDYWGQGTLVTVSSASTKGPSVFPLAPSSKSTSGGTAALGCLVKDYFPEPVTVSWNSGALTSGVHTFPAVLQSSGLYSLSSVVTVPSSSLGTQTYICNVNHKPSNTKVDKKVEPKSCDKTHTCPPCPAPELRRGPSVFLFPPKPKDTLMISRTPEVTCVVVDVSHEDPEVKFNWYVDGVEVHNAKTKPREEQYNSTYRVVSVLTVLHQDWLNGKEYKCKVSNKGLPSSIEKTISKAKGQPREPQVYTLPPSREEMTKNQVSLTCLVKGFYPSDIAVEWESNGQPENNYKTTPPVLDSDGSFFLYSKLTVDKSRWQQGNVFSCSVMHEALHNHYTQKSLSLSP
light: QIVLTQSPATLSLSPGERATLSCTASSSVSSSYLHWYQQKPGKAPKLWIYSTSNLASGVPSRFSGSGSGTDYTLTISSLQPEDFATYYCHQYYRLPPITFGQGTKLEIKRTVAAPSVFIFPPSDEQLKSGTASVVCLLNNFYPREAKVQWKVDNALQSGNSQESVTEQDSKDCTYSLSSTLTLSKADYEKHKVYACEVTHQGLSSPVTKSFNRGEC
notes: also called parent antibody

koff [5]: 8.86e-05 s⁻¹
KD (5.8+)/KD (7.4+) [6]: 0.4
koff [7]: 0.000411 s⁻¹
B2: IPN009VH2/IPN009VK3-SG136 (antibody, human IgG1, kappa)
heavy: B1 heavy
light: B1 light
notes: also called IPN009VH2/IPN009VK3 (lot PPU2040)

koff [5]: 0.000741 s⁻¹
KD (5.8+)/KD (7.4+) [6]: 1.3
koff [7]: 0.000612 s⁻¹
B3: IPN009VH2/IPN93L0024-SG136 (antibody, human IgG1, kappa)
heavy: B1 heavy
light: B1 light with P96H
notes: also called IPN009VH2/IPN93L0024 (lot PPU2044)

kon [1]: 180000 M⁻¹ s⁻¹
KD (5.8+)/KD (7.4+) [2]: 1.3
koff [3]: 0.000956 s⁻¹
kon [3]: 221000 M⁻¹ s⁻¹
koff (5.8+ of 775+)/koff (7.4+) [4]: 1.2
B4: IPN009VH2/IPN93L0024-SG136 (antibody, human IgG1, kappa)
heavy: B1 heavy
light: B1 light with P96H
notes: VL is IPN009VK3 with P95H (Kabat)

kon [1]: 469000 M⁻¹ s⁻¹
KD (5.8+)/KD (7.4+) [2]: 74.9
koff [3]: 0.0194 s⁻¹
kon [3]: 233000 M⁻¹ s⁻¹
koff (5.8+ of 775+)/koff (7.4+) [4]: 54.2
B5: IPN92H0288/IPN93L0211-SG136 (antibody, human IgG1, kappa)
heavy: B1 heavy with Y60E, K65D, G102K, Y103H
light: B1 light with S28E, S31E, P96H

Kd [1]: 1.2 nM
kon [1]: 384000 M⁻¹ s⁻¹
KD (5.8+)/KD (7.4+) [2]: 8.9
Kd [3]: 10.7 nM
koff [3]: 0.00309 s⁻¹
kon [3]: 289000 M⁻¹ s⁻¹
koff (5.8+ of 775+)/koff (7.4+) [4]: 7.7
B6: IPN92H0038/IPN93L0024-SG136 (antibody, human IgG1, kappa, name in Kabat numbering)
heavy: B1 heavy with G66H, Y103H
light: B1 light with P96H
notes: Substitutions are numbered by Kabat

kon [1]: 666000 M⁻¹ s⁻¹
KD (5.8+)/KD (7.4+) [2]: 65.6
koff [3]: 0.0127 s⁻¹
kon [3]: 315000 M⁻¹ s⁻¹
koff (5.8+ of 775+)/koff (7.4+) [4]: 38.8
B7: IPN92H0288/IPN93L0058-SG136 (antibody, human IgG1, kappa)
heavy: B1 heavy with Y60E, K65D, G102K, Y103H
light: B1 light with S28E, P96H

koff [5]: 0.0029 s⁻¹
KD (5.8+)/KD (7.4+) [6]: 4.7
koff [7]: 0.000571 s⁻¹
B8: IPN92H0033/IPN93L0024-SG136 (antibody, human IgG1, kappa)
heavy: B1 heavy with Y103H
light: B1 light with P96H
notes: also called IPN92H0033/IPN93L0024 (lot PPU2046)

koff [5]: 0.0158 s⁻¹
KD (5.8+)/KD (7.4+) [6]: 65.6
koff [7]: 0.000408 s⁻¹
B9: IPN92H0288/IPN93L0058-SG136 (antibody, human IgG1, kappa)
heavy: B1 heavy with Y60E, K65D, G102K, Y103H
light: B1 light with S28E, P96H
notes: also called IPN92H0288/IPN93L0058 (lot PPU2050)

kon [1]: 391000 M⁻¹ s⁻¹
KD (5.8+)/KD (7.4+) [2]: 28.4
koff [3]: 0.0121 s⁻¹
kon [3]: 318000 M⁻¹ s⁻¹
koff (5.8+ of 775+)/koff (7.4+) [4]: 28.8
B10: IPN92H0307/IPN93L0058-SG136 (antibody, human IgG1, kappa)
heavy: B1 heavy with T28E, S30E, Y60E, K65D, G102K, Y103H
light: B1 light with S28E, P96H

koff [5]: 0.000265 s⁻¹
KD (5.8+)/KD (7.4+) [6]: 0.9
koff [7]: 0.00038 s⁻¹
B11: IPN92H0033/IPN009VK3-SG136 (antibody, human IgG1, kappa)
heavy: B1 heavy with Y103H
light: B1 light
notes: also called IPN92H0033/IPN009VK3 (lot PPU2041)

koff [5]: 0.0151 s⁻¹
KD (5.8+)/KD (7.4+) [6]: 28.4
koff [7]: 0.000523 s⁻¹
B12: IPN92H0307/IPN93L0058-SG136 (antibody, human IgG1, kappa)
heavy: B1 heavy with T28E, S30E, Y60E, K65D, G102K, Y103H
light: B1 light with S28E, P96H
notes: also called IPN92H0307/IPN93L0058 (lot PPU2051)

kon [1]: 377000 M⁻¹ s⁻¹
KD (5.8+)/KD (7.4+) [2]: 0.9
koff [3]: 0.000362 s⁻¹
kon [3]: 389000 M⁻¹ s⁻¹
koff (5.8+ of 775+)/koff (7.4+) [4]: 0.7
B13: IPN92H0033/IPN009VK3-SG136 (antibody, human IgG1, kappa)
heavy: B1 heavy with Y103H
light: B1 light
notes: VH is IPN009VH2 with Y99H (Kabat)

koff [5]: 0.0011 s⁻¹
KD (5.8+)/KD (7.4+) [6]: 1.5
koff [7]: 0.00058 s⁻¹
B14: IPN009VH2/IPN93L0021-SG136 (antibody, human IgG1, kappa, name in Kabat numbering)
heavy: B1 heavy
light: B1 light with Y93H
notes: also called IPN009VH2/IPN93L0021 (lot PPU2042)

Kd [1]: 2.77 nM
kon [1]: 227000 M⁻¹ s⁻¹
KD (5.8+)/KD (7.4+) [2]: 0.9
Kd [3]: 2.48 nM
koff [3]: 0.000818 s⁻¹
kon [3]: 330000 M⁻¹ s⁻¹
koff (5.8+ of 775+)/koff (7.4+) [4]: 1.1
B15: IPN009VH2/IPN93L0023-SG136 (antibody, human IgG1, kappa, name in Kabat numbering)
heavy: B1 heavy
light: B1 light with L95H
notes: also called IPN00VH2/IPN93L0023-SG136

kon [1]: 199000 M⁻¹ s⁻¹
KD (5.8+)/KD (7.4+) [2]: 1.5
koff [3]: 0.00126 s⁻¹
kon [3]: 290000 M⁻¹ s⁻¹
koff (5.8+ of 775+)/koff (7.4+) [4]: 1.9
B16: IPN009VH2/IPN93L0021-SG136 (antibody, human IgG1, kappa, name in Kabat numbering)
heavy: B1 heavy
light: B1 light with Y93H
notes: The substitution is numbered by Kabat

kon [1]: 227000 M⁻¹ s⁻¹
KD (5.8+)/KD (7.4+) [2]: 4.7
koff [3]: 0.0031 s⁻¹
kon [3]: 261000 M⁻¹ s⁻¹
koff (5.8+ of 775+)/koff (7.4+) [4]: 5.1
B17: IPN92H0033/IPN93L0024-SG136 (antibody, human IgG1, kappa)
heavy: B1 heavy with Y103H
light: B1 light with P96H

Kd [1]: 2.02 nM
kon [1]: 319000 M⁻¹ s⁻¹
KD (5.8+)/KD (7.4+) [2]: 60.9
Kd [3]: 123 nM
koff [3]: 0.0267 s⁻¹
kon [3]: 217000 M⁻¹ s⁻¹
koff (5.8+ of 775+)/koff (7.4+) [4]: 38.2
B18: IPN92H0281/IPN93L0024-SG136 (antibody, human IgG1, kappa, name in Kabat numbering)
heavy: B1 heavy with H57K, Y60E, K65D, G66E, G102K, Y103H
light: B1 light with P96H
notes: as for B6

koff [5]: 0.0282 s⁻¹
KD (5.8+)/KD (7.4+) [6]: 74.9
koff [7]: 0.00052 s⁻¹
B19: IPN92H0288/IPN93L0211-SG136 (antibody, human IgG1, kappa)
heavy: B1 heavy with Y60E, K65D, G102K, Y103H
light: B1 light with S28E, S31E, P96H
notes: also called IPN92H0288/IPN93L0211 (lot PPU2049)
